Data on one substance can be found in patent US20200299342A1.

As a reminder, the EC50 is the midpoint of the concentration-response curve. A higher EC50 goes with weaker potency. As usually defined, the Kd is the free concentration of one partner at which half of the binding sites on the other are occupied at equilibrium, for simple one-to-one binding. A lower Kd goes with higher affinity.

Test [1] addresses Skp1tr-F-box^Fbw7 complex (human) (UniProt P63208). As to the kind of experiment: SPR, complex immobilised, Cul1 NTD injected. On the technique in general: SPR reads the build-up and loss of mass on a sensor chip optically.
The target is the same in test [2]. As to the kind of experiment: ELISA. (In general: ELISA stands for enzyme-linked immunosorbent assay.)
Target sequence in this assay (P63208 other isoform, or with tags, fused parts or gaps, chain 1 of 2): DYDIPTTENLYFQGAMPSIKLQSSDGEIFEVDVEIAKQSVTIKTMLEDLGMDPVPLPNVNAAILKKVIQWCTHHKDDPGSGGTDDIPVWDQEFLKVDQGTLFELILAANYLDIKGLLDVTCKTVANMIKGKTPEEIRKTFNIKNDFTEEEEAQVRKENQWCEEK
Target sequence in this assay (Q969H0 other isoform, or with tags, fused parts or gaps, chain 2 of 2, further chain): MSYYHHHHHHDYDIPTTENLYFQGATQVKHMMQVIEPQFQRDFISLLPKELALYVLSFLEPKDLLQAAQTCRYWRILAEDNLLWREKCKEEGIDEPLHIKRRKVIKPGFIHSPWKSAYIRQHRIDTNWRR
The target is the same in test [3]. The test can be described thus: SPR.
Target sequence in this assay (P63208 other isoform, or with tags, fused parts or gaps, chain 1 of 2): as the sequence (P63208 other isoform, or with tags, fused parts or gaps, chain 1 of 2) above
Target sequence in this assay (Q969H0 other isoform, or with tags, fused parts or gaps, chain 2 of 2, further chain): as the sequence (Q969H0 other isoform, or with tags, fused parts or gaps, chain 2 of 2, further chain) above

On to “Cul1 N-terminal domain (NTD) (from UniProt Q13616 1-410)”, for which, in test [1], the fold weaker than with Skp1-F-box^Fbw7 amounted to 1000 fold. This substance also gave a half-maximal effective concentration (EC50) in test [2] of 11 nM. This substance returned a dissociation constant Kd in test [3] of 3.6 nM.
